The values that follow come from article PMC7515635 (2020).

First the molecules themselves.
B1: GST-GABARAP (natural protein)
chain: MKFVYKEEHPFEKRRSEGEKIRKKYPDRVPVIVEKAPKARIGDLDKKKYLVPSDLTVGQFYFLIRKRIHLRAEDALFFFVNNVIPPTSATMGQLYQEHHEEDFFLYIAYSDESVYGL
B2: HIS6-AtC53 (natural protein)
chain: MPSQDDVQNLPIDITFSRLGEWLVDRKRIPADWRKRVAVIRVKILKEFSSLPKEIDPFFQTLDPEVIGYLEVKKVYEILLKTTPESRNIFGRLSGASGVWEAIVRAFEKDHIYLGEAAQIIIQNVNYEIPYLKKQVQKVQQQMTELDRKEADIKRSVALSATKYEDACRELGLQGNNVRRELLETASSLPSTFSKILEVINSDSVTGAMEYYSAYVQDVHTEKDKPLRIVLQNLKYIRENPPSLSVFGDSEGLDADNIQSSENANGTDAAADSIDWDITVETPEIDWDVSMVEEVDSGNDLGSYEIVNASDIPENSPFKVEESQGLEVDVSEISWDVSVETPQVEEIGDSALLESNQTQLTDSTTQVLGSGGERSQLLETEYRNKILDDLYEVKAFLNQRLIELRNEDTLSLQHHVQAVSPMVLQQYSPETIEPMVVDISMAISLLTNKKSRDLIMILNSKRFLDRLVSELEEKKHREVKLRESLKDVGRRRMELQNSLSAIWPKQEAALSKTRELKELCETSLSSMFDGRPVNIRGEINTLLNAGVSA
B3: GST-ATG8A (natural protein)
chain: MAKSSFKISNPLEARMSESSRIREKYPDRIPVIVEKAGQSDVPDIDKKKYLVPADLTVGQFVYVVRKRIKLGAEKAIFVFVKNTLPPTAALMSAIYEEHKDEDGFLYMTYSGENTFG

Assay [1] deals with AIM wt peptide. In words: SPR. (SPR reads the build-up and loss of mass on a sensor chip optically.)
Assay [2] addresses B3. As to the kind of experiment: SPR; derived from AIM wt peptide competition.

What is called Kd is the constant that tells how readily two partners part at equilibrium. In assay [1], B1 showed a Kd of 1640 nM. In other words, the single-digit micromolar range. Molecule B2 gave a Kd in assay [2] of approximately 1390 nM. On to B3, for which, in assay [1], binding was put at a Kd of 5880 nM.
